Results from US20250129150A1 (APOGEE THERAPEUTICS, published 2025).

T1: recombinant human CD32a (167R) (human, UniProt P12318 36-218)
T1 sequence (looked up): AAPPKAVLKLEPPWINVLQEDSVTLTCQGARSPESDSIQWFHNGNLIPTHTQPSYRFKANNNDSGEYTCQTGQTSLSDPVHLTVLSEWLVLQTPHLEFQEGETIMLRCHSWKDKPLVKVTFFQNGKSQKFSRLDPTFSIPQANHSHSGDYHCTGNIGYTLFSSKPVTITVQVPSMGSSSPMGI

T2: recombinant human CD32b (human, UniProt P31994 46-217)
T2 sequence (looked up): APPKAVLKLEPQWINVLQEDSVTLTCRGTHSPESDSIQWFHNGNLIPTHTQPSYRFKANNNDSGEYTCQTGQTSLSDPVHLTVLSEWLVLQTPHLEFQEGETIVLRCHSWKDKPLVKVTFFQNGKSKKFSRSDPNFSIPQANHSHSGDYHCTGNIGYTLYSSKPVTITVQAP

T3: Recombinant Cynomolgus IL-13 Protein, His Tag (SINO BIOLOGICAL, Cat. 11057-C07H) (cynomolgus monkey, UniProt Q5I6E4 19-132 (Macaca thibetana entry))
T3 construct: also called Cyno IL-13; cynomolgus monkey IL-13
T3 chain: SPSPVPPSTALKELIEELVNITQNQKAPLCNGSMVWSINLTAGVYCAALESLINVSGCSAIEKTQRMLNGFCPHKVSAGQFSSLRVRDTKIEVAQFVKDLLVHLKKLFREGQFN


Key:
[1] = target: biotinylated hIL-13 (human, UniProt P35225 35-146, limits assumed, biotinylated (site not stated)); assay: FACS; blockade of biotinylated hIL-13 (0.05 ug/mL) binding to HEK293 cells expressing hIL-13Rα1/hIL-4Rα
Experimental: Briefly, HEK293 previously transduced to stably express both hIL-13Rα and hIL-4Rα were cultured and harvested. Cells were seeded at 200,000 cells in 100 uL per well. Cells were washed and the supernatant was discarded. […] The cells were stained in this mixture at 4° C. for 1 hour. […] Cells were incubated at 4° C. for 1 hour, protected from light. Cells were then washed and the median fluorescence intensity (MFI) of cells in each well were recorded by FACS using a BD FACSCanto II. Subsequent data were analyzed using GraphPad Prism.

[2] = target: T4, hIL-13 (human, UniProt P35225 35-146, limits assumed); assay: cell-based or functional assay
[3] = target: T1, recombinant human CD32a (167R); assay: SPR, antibody captured on anti-kappa chip, recombinant human receptor as analyte
Experimental: (§1) Binding affinity (KD) of antibodies to Fc receptors and C1q were determined through surface plasmon resonance (SPR) using a Biacore 8K. Briefly, an SPR chip functionalized with an anti-kappa light-chain antibody was used to capture purified antibodies normalized to […], at a flow rate of 10 uL/min for 90 seconds or 120 seconds. A paired channel with only buffer was used as reference. Subsequently, varying concentrations of recombinant human CD32a (167H), CD32a (167R), CD32b, CD16a (176V), CD16a (176F), FcRn, CD64, and C1q were injected over the surface with captured purified antibody as well as the reference channel. Regeneration of the chip between different concentrations of different antigens were performed with 10 mM Glycine HCl, pH 1.5 and antibody was again captured. Association and dissociation rate constants were subsequently determined through fitting to a 1:1 Langmuir binding model or steady-state analysis model, whichever applicable, using the Biacore Insight Evaluation Software from which a KD value was derived.

[4] = target: recombinant human CD64 (human, UniProt P12314 16-288); assay: as above
Experimental: as §1

[5] = target: T2, recombinant human CD32b; assay: as above
Experimental: as §1

[6] = target: T4, hIL-13; assay: cell-based or functional assay; remark: listed apart in the source
[7] = target: T3, Recombinant Cynomolgus IL-13 Protein, …; assay: SPR (Biacore 8K), mAb captured on Protein G chip, IL-13 as analyte
Experimental: (§2) Samples were injected in a multi-cycle manner over freshly captured mAb, by regenerating the capture surfaces with injection of glycine pH 1.5 for 30 sec at a flow rate of 30 μL/min. The data was processed and analyzed with Biacore Insight Evaluation Software Version 2.0.15.12933 (GE Healthcare) as follows. […] The responses from the two buffer blank injections were then subtracted from the reference subtracted data (2-1) to yield double-referenced data, which were fit to an 1:1 binding model to determine the apparent association (ka) and dissociation rate constants (kd). Their ratio provided the apparent equilibrium dissociation constant or affinity constant (KD=kd/ka).

[8] = target: T5, Recombinant Human IL-13 Protein, His Tag (Acro Cat. IL3-H52H4) (human, UniProt P35225 35-146); assay: as above
T5 construct: Bought protein; also called Hu IL-13; not shown: His Tag
Experimental: as §2

[9] = target: T4, hIL-13; assay: cell-based or functional assay; remark: listed apart in the source
[10] = target: T6, recombinant human FcRn (human, UniProt P55899 24-297; P61769 21-119); assay: SPR, antibody captured on anti-kappa chip, FcRn as analyte, pH 5.8; pH 5.8
T6 construct: also called neonatal Fc receptor
Experimental: as §1

[11] = target: T4, hIL-13; assay: cell-based or functional assay; remark: listed apart in the source
[12] = target: T4, hIL-13; assay: cell-based or functional assay; remark: listed apart in the source
[13] = target: T4, hIL-13; assay: cell-based or functional assay; remark: listed apart in the source
[14] = target: T4, hIL-13; assay: ELISA
[15] = target: recombinant human CD16a (176V) (human, UniProt P08637 17-208); assay: SPR, antibody captured on anti-kappa chip, recombinant human receptor as analyte
Experimental: as §1

[16] = target: T7, recombinant human C1q (human, UniProt P02745 23-245; P02746 28-253; P02747 29-245, limits assumed); assay: SPR, antibody captured on anti-kappa chip, C1q as analyte; signal relative to rituximab
T7 construct: subunit composition is from general knowledge
Experimental: as §1

biotinylated hIL-13, sequence (P35225 other isoform, or with tags, fused parts or gaps limits assumed): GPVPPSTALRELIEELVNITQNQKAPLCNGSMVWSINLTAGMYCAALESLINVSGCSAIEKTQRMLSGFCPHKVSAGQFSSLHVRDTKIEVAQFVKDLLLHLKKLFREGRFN
T5 sequence (P35225 other isoform, or with tags, fused parts or gaps limits assumed): as above
T4 sequence (P35225 other isoform, or with tags, fused parts or gaps limits assumed): as above
T6 sequence (P55899 24-297 limits assumed, chain 1 of 2): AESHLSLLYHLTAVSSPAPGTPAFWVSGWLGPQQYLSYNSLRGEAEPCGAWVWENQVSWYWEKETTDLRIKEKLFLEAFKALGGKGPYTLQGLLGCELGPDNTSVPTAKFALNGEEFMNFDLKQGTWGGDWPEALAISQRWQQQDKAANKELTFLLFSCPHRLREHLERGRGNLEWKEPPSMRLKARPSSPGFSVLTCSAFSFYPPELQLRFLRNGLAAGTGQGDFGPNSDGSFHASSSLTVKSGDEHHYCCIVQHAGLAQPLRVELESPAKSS
T6 sequence (P61769 21-119 limits assumed, chain 2 of 2): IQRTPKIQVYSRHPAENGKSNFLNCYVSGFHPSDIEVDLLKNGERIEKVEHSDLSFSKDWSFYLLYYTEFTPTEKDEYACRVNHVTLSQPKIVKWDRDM
recombinant human CD64, sequence (P12314 16-288 limits assumed): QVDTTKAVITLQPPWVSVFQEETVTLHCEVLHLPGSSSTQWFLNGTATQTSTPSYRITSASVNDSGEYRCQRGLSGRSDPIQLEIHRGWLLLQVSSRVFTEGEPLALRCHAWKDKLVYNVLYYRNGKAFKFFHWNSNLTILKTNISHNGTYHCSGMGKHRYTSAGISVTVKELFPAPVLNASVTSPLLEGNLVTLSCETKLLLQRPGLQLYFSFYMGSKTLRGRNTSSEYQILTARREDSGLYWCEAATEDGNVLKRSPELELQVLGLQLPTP
T7 sequence (P02745 23-245 limits assumed, chain 1 of 3): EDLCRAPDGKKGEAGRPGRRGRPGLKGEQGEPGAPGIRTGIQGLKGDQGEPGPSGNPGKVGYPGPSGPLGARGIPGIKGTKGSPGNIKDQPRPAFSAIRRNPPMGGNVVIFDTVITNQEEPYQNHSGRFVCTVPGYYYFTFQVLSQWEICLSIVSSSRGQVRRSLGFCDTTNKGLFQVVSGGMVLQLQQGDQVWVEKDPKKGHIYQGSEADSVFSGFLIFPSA
T7 sequence (P02746 28-253 limits assumed, chain 2 of 3): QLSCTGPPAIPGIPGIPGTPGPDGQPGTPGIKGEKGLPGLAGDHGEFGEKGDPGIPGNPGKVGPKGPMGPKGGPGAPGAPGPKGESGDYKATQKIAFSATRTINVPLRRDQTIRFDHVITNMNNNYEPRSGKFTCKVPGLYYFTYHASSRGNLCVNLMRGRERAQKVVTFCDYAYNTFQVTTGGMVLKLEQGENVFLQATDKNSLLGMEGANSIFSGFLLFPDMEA
T7 sequence (P02747 29-245 limits assumed, chain 3 of 3): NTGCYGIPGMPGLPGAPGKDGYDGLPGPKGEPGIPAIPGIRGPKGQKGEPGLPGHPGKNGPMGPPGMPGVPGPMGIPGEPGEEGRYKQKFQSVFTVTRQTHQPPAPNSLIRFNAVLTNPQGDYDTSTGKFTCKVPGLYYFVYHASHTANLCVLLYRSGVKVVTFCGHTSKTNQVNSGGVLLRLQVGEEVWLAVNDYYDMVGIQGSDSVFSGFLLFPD
recombinant human CD16a (176V), sequence (P08637 17-208 F176V): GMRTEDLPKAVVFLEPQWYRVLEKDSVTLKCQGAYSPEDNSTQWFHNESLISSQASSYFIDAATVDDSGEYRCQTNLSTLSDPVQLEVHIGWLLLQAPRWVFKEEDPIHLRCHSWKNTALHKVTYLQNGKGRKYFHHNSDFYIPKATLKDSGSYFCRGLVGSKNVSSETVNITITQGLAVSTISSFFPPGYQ

| Binder | IC50 [1] [nM] | pSTAT6 Inhibition IC50 (HT-29 cells) [2] [nM] | Kd [3] [nM] | Kd [4] [nM] | Kd [5] [nM] | TF-1 Proliferation Inhibition IC50 [6] [nM] | Kd [7] [nM] | Kd [8] [nM] | CD23 Expression Inhibition IC50 (human PBMCs) [9] [nM] | pSTAT6 Inhibition IC50 (human PBMCs) [9] [nM] | Kd [10] [nM] | CCL2 Secretion IC50 (HaCaT cells) [11] [nM] | CCL26 Secretion IC50 (HaCaT cells) [11] [nM] | NTRK1 Expression IC50 (HaCaT cells) [11] [nM] | TARC Release IC50 (A549 cells) [12] [nM] | TARC Inhibition IC50 (A549 cells) [13] [nM] | Kd [14] [nM] | binding result [15] | C1q (Signal Relative to Rituximab) [16] [%] |
| --- | --- | --- | --- | --- | --- | --- | --- | --- | --- | --- | --- | --- | --- | --- | --- | --- | --- | --- | --- |
| Lebrikizumab (Construct 1) (antibody, human IgG4 S228P, kappa, also called Lebrikizumab-HC; Lebrikizumab-LC) heavy: not shown light: DIVMTQSPDSLSVSLGERATINCRASKSVDSYGNSFMHWYQQKPGQPPKLLIYLASNLESGVPDRFSGSGSGTDFTLTISSLQAEDVAVYYCQQNNEDPRTFGGGTKVEIKRTVAAPSVFIFPPSDEQLKSGTASVVCLLNNFYPREAKVQWKVDNALQSGNSQESVTEQDSKDSTYSLSSTLTLSKADYEKHKVYACEVTHQGLSSPVTKSFNRGEC | 1.11 | 0.23 | 2380 | 1.12 | 2930 | 0.2 | 0.309 | 0.131 | 0.81 | 0.38 | 1060 | 0.076 | 0.055 | 0.056 | 0.9 | 0.74 | – | – | – |
| Construct 141 (antibody, human IgG1, kappa, L234A L235A, also called HC1; LC6_m8) heavy: EVQLQESGPGLVKPSETLSLTCTVSGFSLNAYSVNWIRQPPGKGLEWLGMIWGDGKIVYNSALKSRLTISKDSSKNQVSLKLSSVTAADTAVYYCAGDGYYPYAMDNWGQGTTVTVSSASTKGPSVFPLAPSSKSTSGGTAALGCLVKDYFPEPVTVSWNSGALTSGVHTFPAVLQSSGLYSLSSVVTVPSSSLGTQTYICNVNHKPSNTKVDKKVEPKSCDKTHTCPPCPAPEAAGGPSVFLFPPKPKDTLYITREPEVTCVVVDVSHEDPEVKFNWYVDGVEVHNAKTKPREEQYNSTYRVVSVLTVLHQDWLNGKEYKCKVSNKALPAPIEKTISKAKGQPREPQVYTLPPSRDELTKNQVSLTCLVKGFYPSDIAVEWESNGQPENNYKTTPPVLDSDGSFFLYSKLTVDKSRWQQGNVFSCSVMHEALHNHYTQKSLSLSPG light: DIQLTQSPSSLSASVGDRVTITCRASKSVDSYGNSFMHWYQQKPGKAPKLLIYLASELESGVPSRFSGSGSGTDFTLTISSLQPEDFATYYCQQNNEDPRTFGGGTKVEIKRTVAAPSVFIFPPSDEQLKSGTASVVCLLNNFYPREAKVQWKVDNALQSGNSQESVTEQDSKDSTYSLSSTLTLSKADYEKHKVYACEVTHQGLSSPVTKSFNRGEC | 0.81 | 0.25 | – | – | – | 0.19 | 0.329 | 0.107 | 0.86 | 0.41 | – | 0.075 | 0.055 | 0.054 | – | 0.73 | 0.025 | – | – |
| Construct 137 (antibody, human IgG1, kappa, L234A L235A, also called HC5; LC6_m8) heavy: EVQLLESGGGLVQPGGSLRLSCAASGFSLNAYSVNWVRQAPGKGLEWLGMIWGDGKIVYNSALKSRLTISKDSSKNTVYLQMNSLRAEDTAVYYCAGDGYYPYAMDNWGQGTTVTVSSASTKGPSVFPLAPSSKSTSGGTAALGCLVKDYFPEPVTVSWNSGALTSGVHTFPAVLQSSGLYSLSSVVTVPSSSLGTQTYICNVNHKPSNTKVDKKVEPKSCDKTHTCPPCPAPEAAGGPSVFLFPPKPKDTLYITREPEVTCVVVDVSHEDPEVKFNWYVDGVEVHNAKTKPREEQYNSTYRVVSVLTVLHQDWLNGKEYKCKVSNKALPAPIEKTISKAKGQPREPQVYTLPPSRDELTKNQVSLTCLVKGFYPSDIAVEWESNGQPENNYKTTPPVLDSDGSFFLYSKLTVDKSRWQQGNVFSCSVMHEALHNHYTQKSLSLSPG light: DIQLTQSPSSLSASVGDRVTITCRASKSVDSYGNSFMHWYQQKPGKAPKLLIYLASELESGVPSRFSGSGSGTDFTLTISSLQPEDFATYYCQQNNEDPRTFGGGTKVEIKRTVAAPSVFIFPPSDEQLKSGTASVVCLLNNFYPREAKVQWKVDNALQSGNSQESVTEQDSKDSTYSLSSTLTLSKADYEKHKVYACEVTHQGLSSPVTKSFNRGEC | 0.89 | 0.33 | – | – | – | 0.16 | 0.246 | 0.0421 | 1.01 | 0.44 | – | – | – | – | – | 0.87 | 0.026 | – | – |
| Construct 134 (antibody, human IgG4, kappa, also called HC1; LC6) heavy: EVQLQESGPGLVKPSETLSLTCTVSGFSLNAYSVNWIRQPPGKGLEWLGMIWGDGKIVYNSALKSRLTISKDSSKNQVSLKLSSVTAADTAVYYCAGDGYYPYAMDNWGQGTTVTVSSASTKGPSVFPLAPCSRSTSESTAALGCLVKDYFPEPVTVSWNSGALTSGVHTFPAVLQSSGLYSLSSVVTVPSSSLGTKTYTCNVDHKPSNTKVDKRVESKYGPPCPSCPAPEFLGGPSVFLFPPKPKDTLYITREPEVTCVVVDVSQEDPEVQFNWYVDGVEVHNAKTKPREEQFNSTYRVVSVLTVLHQDWLNGKEYKCKVSNKGLPSSIEKTISKAKGQPREPQVYTLPPSQEEMTKNQVSLTCLVKGFYPSDIAVEWESNGQPENNYKTTPPVLDSDGSFFLYSRLTVDKSRWQEGNVFSCSVMHEALHNHYTQKSLSLSLGK light: DIQLTQSPSSLSASVGDRVTITCRASKSVDSYGNSFMHWYQQKPGKAPKLLIYLASNLESGVPSRFSGSGSGTDFTLTISSLQPEDFATYYCQQNNEDPRTFGGGTKVEIKRTVAAPSVFIFPPSDEQLKSGTASVVCLLNNFYPREAKVQWKVDNALQSGNSQESVTEQDSKDSTYSLSSTLTLSKADYEKHKVYACEVTHQGLSSPVTKSFNRGEC | 1.08 | 0.2 | 8140 | 2.8 | 8620 | 0.18 | 0.33 | 0.105 | – | – | 160 | – | – | – | – | 0.99 | 0.05 | no binding | 25.3 |
